From CN114573691A (EIGHT HOSPITALS IN AFFILIATED CITY OF GUANGZHOU MEDICAL; …, dated 2022)

Biological target: 新冠病毒SARS-CoV-2原始毒株(WT)S1抗原 (SARS-CoV-2, UniProt P0DTC2 16-685)

B1: 中和抗体YB9-258 (antibody, V domains shown)
VH: EVQLVESGGGLIQPGGSLRLSCAASGLTVSSNYMHWVRQAPGKGLEWVSVLYAGGSAFYADSVKGRFTISRNNSKNTLYLQMNSLRAEDTAIYYCARGLGDYLDSWGQGTLVTVSS
VL: DIQMTQSPSSVSASVGDRVTITCRASQGIGSWLAWYQQKPGKAPQLLIYAASTLQSGVPPRFSGSGSGTDFTLTITSLQPEDFASYYCQQANSVLALTFGGGTKVEIK
B1 showed a Kd of 0.0717 nM.

B2: 中和抗体YB13-208 (antibody, V domains shown)
V domain 1: QITLKESGPTLVKPTQTLTLTCTFSGLSLSTSGVSVGWIRQPPGKAPEWLALIYWDDDKRYSPSLTSRLSITKDTSKNQVVLTMTNMDPVDTATYYCAHPRYYGDSSGYYWIWGQGTMVTVSS
V domain 2: SYELTQPPSVSVSPGQTARITCSGDALPKQYAYWYQQKPGQAPVVVMYKTSERPSGIPERFSGSSSGTTVTLTISGVQAEDEADYYCQSADSSGFYVFGTGTQVTVL
B2 gave a Kd of 0.082 nM.
